Literature values as cited in publication PMC11182772.
pKd: −log10 of the molar value.

Target: Scc1-SA2 (Homo sapiens) (UniProt O60216)
Sequence (O60216 whole entry, chain 1 of 2): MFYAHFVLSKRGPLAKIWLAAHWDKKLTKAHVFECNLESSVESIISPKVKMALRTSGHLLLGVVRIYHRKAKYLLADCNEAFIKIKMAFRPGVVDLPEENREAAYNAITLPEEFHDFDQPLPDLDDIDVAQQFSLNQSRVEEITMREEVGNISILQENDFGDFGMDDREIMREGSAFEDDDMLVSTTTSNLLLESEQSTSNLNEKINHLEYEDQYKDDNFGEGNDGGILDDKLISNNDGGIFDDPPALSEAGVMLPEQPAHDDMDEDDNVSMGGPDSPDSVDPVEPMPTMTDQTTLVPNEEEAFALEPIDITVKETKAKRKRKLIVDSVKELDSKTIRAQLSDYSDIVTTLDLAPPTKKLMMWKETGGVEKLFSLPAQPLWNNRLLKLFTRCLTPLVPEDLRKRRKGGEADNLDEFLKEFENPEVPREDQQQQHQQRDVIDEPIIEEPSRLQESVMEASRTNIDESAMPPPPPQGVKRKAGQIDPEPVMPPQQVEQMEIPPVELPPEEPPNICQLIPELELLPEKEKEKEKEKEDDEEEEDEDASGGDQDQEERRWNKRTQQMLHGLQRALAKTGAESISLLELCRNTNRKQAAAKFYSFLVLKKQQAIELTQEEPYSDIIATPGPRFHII
Sequence (Q8N3U4 whole entry, chain 2 of 2, further chain): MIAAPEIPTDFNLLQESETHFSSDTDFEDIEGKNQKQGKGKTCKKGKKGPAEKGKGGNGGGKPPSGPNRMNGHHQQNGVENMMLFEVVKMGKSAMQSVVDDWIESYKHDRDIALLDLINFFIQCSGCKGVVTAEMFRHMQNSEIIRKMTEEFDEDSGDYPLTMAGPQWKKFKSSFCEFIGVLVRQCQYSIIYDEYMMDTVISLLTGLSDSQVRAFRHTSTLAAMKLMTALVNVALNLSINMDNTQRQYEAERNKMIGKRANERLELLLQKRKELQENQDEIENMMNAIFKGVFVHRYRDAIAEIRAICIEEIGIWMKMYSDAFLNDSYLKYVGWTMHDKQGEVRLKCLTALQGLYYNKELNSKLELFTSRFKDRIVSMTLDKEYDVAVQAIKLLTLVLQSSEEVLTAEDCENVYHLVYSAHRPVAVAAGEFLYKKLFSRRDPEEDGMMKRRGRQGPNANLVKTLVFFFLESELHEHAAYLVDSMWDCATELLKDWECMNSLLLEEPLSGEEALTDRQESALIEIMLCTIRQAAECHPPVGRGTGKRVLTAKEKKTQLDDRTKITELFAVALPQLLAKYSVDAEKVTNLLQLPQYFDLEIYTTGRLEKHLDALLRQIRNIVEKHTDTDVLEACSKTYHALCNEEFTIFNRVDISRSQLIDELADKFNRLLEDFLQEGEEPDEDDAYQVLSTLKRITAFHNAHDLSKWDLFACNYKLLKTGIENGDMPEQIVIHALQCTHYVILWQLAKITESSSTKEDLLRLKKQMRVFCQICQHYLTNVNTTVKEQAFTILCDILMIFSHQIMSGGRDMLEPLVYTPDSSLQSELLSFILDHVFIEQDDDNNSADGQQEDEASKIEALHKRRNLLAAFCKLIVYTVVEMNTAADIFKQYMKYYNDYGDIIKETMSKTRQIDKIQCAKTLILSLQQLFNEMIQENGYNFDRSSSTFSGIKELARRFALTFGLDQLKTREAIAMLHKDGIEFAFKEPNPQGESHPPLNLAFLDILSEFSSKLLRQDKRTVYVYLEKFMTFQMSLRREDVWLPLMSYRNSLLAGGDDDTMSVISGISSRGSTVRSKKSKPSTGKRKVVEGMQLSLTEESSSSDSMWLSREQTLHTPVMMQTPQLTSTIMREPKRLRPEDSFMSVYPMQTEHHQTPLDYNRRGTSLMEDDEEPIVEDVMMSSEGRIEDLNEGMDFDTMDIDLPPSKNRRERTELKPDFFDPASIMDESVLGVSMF

pKd: 5.40
Substance: CENP-U DVFDF motif peptide (from UniProt Q71F23)
